Measured values taken from patent publication US20070004909A1.

Target: soluble CD16A (sCD16A) (UniProt P08637)
Assay: SPR (BIAcore 1000); receptor amine-coupled (~1000 RU), scFv as analyte; units not printed (koff/kon implies nM)

Sequence of soluble CD16A (sCD16A) (P08637 17-208 limits assumed): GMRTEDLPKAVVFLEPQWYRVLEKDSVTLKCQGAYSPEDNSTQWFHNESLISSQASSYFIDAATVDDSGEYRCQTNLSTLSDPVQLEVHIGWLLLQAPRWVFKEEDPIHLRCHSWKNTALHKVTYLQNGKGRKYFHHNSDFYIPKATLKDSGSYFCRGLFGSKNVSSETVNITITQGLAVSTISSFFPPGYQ

Kd: 38.7 nM
Substance: h3G8 scFv
